Measured values: article doi:10.1101/2025.06.10.658827

Target: cyXR, xanthorhodopsin from an Antarctic filamentous cyanobacterium (genus Pseudanabaena) (Pseudanabaena (Antarctic MAG, Dry Valleys))
Assay: cryo-EM structure

cyXR, xanthorhodopsin from an Antarctic filamentous cyanobacterium (genus Pseudanabaena) (natural protein)
stoichiometry N: 5
